In one experiment the target is HLA-A*24:02. The experiment in a line: IEDB peptide-MHC binding, purified MHC/competitive/radioactivity; filed as Kd, often an IC50 or EC50 that approximates it; ≥ and ≤ were set here for values at or beyond the usual limits of such assays.
The target in a further experiment is HLA-A*23:01. The description is as above.
In another experiment the target is HLA-A*30:02. Described as above.
For another experiment, the target named is HLA-B*58:01. The experiment in a line: IEDB peptide-MHC binding, purified MHC/direct/fluorescence; filed as Kd, often an IC50 or EC50 that approximates it; ≥ and ≤ were set here for values at or beyond the usual limits of such assays. Particulars: source organism: Mammarenavirus juninense.
Experiment [1] deals with HLA-A*02:01. The experiment is described as above.
Another experiment has as its target HLA-A*26:01. Description: IEDB peptide-MHC binding, purified MHC/competitive/radioactivity; filed as Kd, often an IC50 or EC50 that approximates it; ≥ and ≤ were set here for values at or beyond the usual limits of such assays.
The target in the next experiment is HLA-A*01:01. The description is as above.
A further experiment has as its target HLA-A*29:02. The experiment is described as above.
The target in experiment [2] is HLA-A*02:01. The experiment in a line: IEDB peptide-MHC binding, purified MHC/competitive/fluorescence; ≥ and ≤ were set here for values at or beyond the usual limits of such assays.
Another experiment deals with HLA-A*31:01. The experiment in a line: IEDB peptide-MHC binding, purified MHC/competitive/radioactivity; filed as Kd, often an IC50 or EC50 that approximates it; ≥ and ≤ were set here for values at or beyond the usual limits of such assays. The note with it: source organism: Vaccinia virus WR.
Another experiment deals with HLA-A*11:01. The description is as above. Particulars: source organism: Vaccinia virus WR.
For the next experiment, the target named is HLA-A*33:01. The description is as above. The note with it: source organism: Vaccinia virus WR.
The next experiment addresses HLA-A*68:01. The description is as above. Particulars: source organism: Vaccinia virus WR.
The target of a further experiment is HLA-A*03:01. The description is as above. The note with it: source organism: Vaccinia virus WR.
[3] abbreviates: source organism: Dengue virus 3 Martinique/1243/1999.
Setting [4] is: source organism: Dengue virus 1 Brazil/97-11/1997.
[5] abbreviates: source organism: SARS coronavirus Tor2.
Setting [6] is: source organism: Lassa virus GA391.
The mark [7] stands for this setting: source organism: Mammarenavirus guanaritoense.
Setting [8] is: source organism: Mammarenavirus brazilense.
[9] abbreviates: source organism: Lassa virus Josiah.

The Kd is the equilibrium constant for the complex coming apart. The term IC50 denotes the concentration that gives 50% inhibition. High values mean lower potency, low ones higher potency.

Turning to PYMPTVIEHL, the figures for the Kd with HLA-A*24:02 (setting [3]) and with HLA-A*23:01 (setting [3]) were 46.2 nM and 43.4 nM, respectively.

For the sequence KATLTEGVY, in the experiment with HLA-A*30:02 (source organism: Dengue virus 4 Philippines/H241/1956), the Kd is 40.1 nM.

FMNAVGHDW displayed a Kd in the experiment with HLA-B*58:01 of 71 nM.

In turn, ILWDYFSLV gave a Kd with HLA-A*02:01 [1] (source organism: Mammarenavirus amapariense) of 0.2 nM.

Regarding ETEPPFGESY, the figures for the Kd with HLA-A*26:01 (setting [4]) and in the experiment with HLA-A*01:01 (setting [4]) were 134 nM and 5.28 nM, respectively.

As for MMSAPPAEY, the dissociation constant Kd in the experiment with HLA-A*24:02 (setting [5]) is 12700 nM; in the experiment with HLA-A*26:01 (setting [5]), 2240 nM; in the experiment with HLA-A*01:01 (setting [5]), 182 nM; with HLA-A*29:02 (setting [5]) it was 1.23 nM; in the experiment with HLA-A*30:02 (setting [5]) it was 0.112 nM; with HLA-A*23:01 (setting [5]), at least 51100 nM.

With LAYVVIGLLF, the Kd with HLA-A*23:01 (setting [4]) stood at 36.4 nM.

With KDFKCFNLI, the Kd was 792 nM with HLA-A*24:02 (setting [6]); at least 77900 nM in the experiment with HLA-A*26:01 (setting [6]); 1180 nM with HLA-A*01:01 (setting [6]); at least 78900 nM with HLA-A*29:02 (setting [6]); at least 33600 nM with HLA-A*30:02 (setting [6]); 395 nM in the experiment with HLA-A*23:01 (setting [6]).

In the case of LTQDLFLPFY, the Kd with HLA-A*24:02 (setting [5]) stood at 10500 nM; with HLA-A*26:01 (setting [5]), 481 nM; in the experiment with HLA-A*01:01 (setting [5]), 8.38 nM; with HLA-A*29:02 (setting [5]) it was 53.5 nM; in the experiment with HLA-A*30:02 (setting [5]) it was 2.26 nM; with HLA-A*23:01 (setting [5]), 18000 nM.

In the case of VFHELPSLC, the values for the Kd with HLA-A*26:01 (setting [7]) and in the experiment with HLA-A*01:01 (setting [7]) were at least 77900 nM and at least 78100 nM, respectively.

As to ILDGKNCTL, the Kd with HLA-A*02:01 [1] (source organism: Influenza A virus (A/turkey/Canada-Ontario/NS-01839-1/05(H3))) was 95.1 nM.

For the sequence LFQLIFFLT, the Kd in the experiment with HLA-A*24:02 (setting [8]) is at least 22300 nM; with HLA-A*26:01 (setting [8]), at least 77900 nM; in the experiment with HLA-A*01:01 (setting [8]), 3330 nM; in the experiment with HLA-A*30:02 (setting [8]), 6090 nM.

As for VFGTAYGVLF, the Kd was 73.7 nM in the experiment with HLA-A*24:02 (setting [4]) and 34.4 nM with HLA-A*23:01 (setting [4]).

LSNFGAPSY: the Kd in the experiment with HLA-A*24:02 (setting [5]) is at least 77600 nM; in the experiment with HLA-A*26:01 (setting [5]), 4580 nM; with HLA-A*01:01 (setting [5]), 81.2 nM; in the experiment with HLA-A*29:02 (setting [5]), 13.9 nM; in the experiment with HLA-A*30:02 (setting [5]) it was 1.77 nM; in the experiment with HLA-A*23:01 (setting [5]), at least 77800 nM.

As for GIKCIKKGV, the IC50 in the experiment with HLA-A*02:01 [2] (source organism: Vaccinia virus) was at least 102000 nM.

With GYCLTRWMLI, the Kd amounted to 1100 nM in the experiment with HLA-A*24:02 (setting [9]), 12200 nM in the experiment with HLA-A*29:02 (setting [9]) and 242 nM in the experiment with HLA-A*23:01 (setting [9]).

In the case of EIEPKLDGYY, the Kd with HLA-A*24:02 (setting [5]) is at least 70300 nM; with HLA-A*26:01 (setting [5]) it was 163 nM; in the experiment with HLA-A*01:01 (setting [5]), 55.1 nM; with HLA-A*29:02 (setting [5]), 7390 nM; with HLA-A*30:02 (setting [5]), 534 nM; in the experiment with HLA-A*23:01 (setting [5]) it was at least 70000 nM.

Consider LTKGTLEPEY, for which the Kd was at least 70300 nM with HLA-A*24:02 (setting [5]); 1990 nM in the experiment with HLA-A*26:01 (setting [5]); 3200 nM in the experiment with HLA-A*01:01 (setting [5]); 2050 nM in the experiment with HLA-A*29:02 (setting [5]); 536 nM with HLA-A*30:02 (setting [5]); at least 70000 nM in the experiment with HLA-A*23:01 (setting [5]).

With NMVYMPASW, the Kd with HLA-A*24:02 (setting [5]) was 4020 nM; in the experiment with HLA-A*26:01 (setting [5]), at least 77900 nM; in the experiment with HLA-A*01:01 (setting [5]), at least 78100 nM; in the experiment with HLA-A*29:02 (setting [5]), at least 25100 nM; with HLA-A*30:02 (setting [5]), at least 96800 nM; in the experiment with HLA-A*23:01 (setting [5]), 706 nM.

In the case of ISEPTIHLV, the dissociation constant Kd with HLA-A*24:02 (setting [7]) is at least 77500 nM; with HLA-A*26:01 (setting [7]), at least 77900 nM; with HLA-A*01:01 (setting [7]), 626 nM; with HLA-A*29:02 (setting [7]), at least 78900 nM; in the experiment with HLA-A*30:02 (setting [7]), 4890 nM; in the experiment with HLA-A*23:01 (setting [7]), 15400 nM.

Turning to FRSGVPPKV, in the experiment with HLA-A*02:01 [2] (source organism: Sudan ebolavirus), the IC50 was at least 169000 nM.

Take DMFLTSVINR: the Kd is 6.58 nM with HLA-A*31:01; at least 42900 nM with HLA-A*29:02 (source organism: Vaccinia virus WR); 2420 nM with HLA-A*11:01; 2.3 nM with HLA-A*33:01; 10.2 nM with HLA-A*68:01; 965 nM with HLA-A*03:01.

In the case of RLDDDGNFQL, the IC50 in the experiment with HLA-A*02:01 [2] (source organism: West Nile virus NY-99) was found to be 847 nM.

The values above are taken from the Immune Epitope Database (IEDB).
